According to paper PMC7144924 (Nucleic Acids Research, 2020):

Molecular target: T1, GST-tagged R289A mutant Rrp9 (S. cerevisiae, UniProt Q06506 1-573, R289A)
T1 sequence (looked up): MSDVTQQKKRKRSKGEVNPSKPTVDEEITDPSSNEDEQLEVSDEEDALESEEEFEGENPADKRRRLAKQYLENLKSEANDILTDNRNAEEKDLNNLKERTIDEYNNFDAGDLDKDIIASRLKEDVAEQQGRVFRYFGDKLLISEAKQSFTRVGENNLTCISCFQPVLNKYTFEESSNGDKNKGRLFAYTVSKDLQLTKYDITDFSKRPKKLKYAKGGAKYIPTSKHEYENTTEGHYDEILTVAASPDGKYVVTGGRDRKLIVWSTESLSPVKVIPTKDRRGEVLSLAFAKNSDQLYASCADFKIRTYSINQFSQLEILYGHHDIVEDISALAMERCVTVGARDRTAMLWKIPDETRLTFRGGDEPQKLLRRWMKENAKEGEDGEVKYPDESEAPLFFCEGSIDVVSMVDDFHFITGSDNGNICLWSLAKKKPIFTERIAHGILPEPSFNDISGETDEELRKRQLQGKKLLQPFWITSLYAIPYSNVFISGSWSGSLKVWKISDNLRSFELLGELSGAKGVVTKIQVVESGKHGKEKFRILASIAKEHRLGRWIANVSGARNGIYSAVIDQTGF
Test: pull-down

reduction of recovery relative to WT Rrp9: 20%
B1: [35S]-methionine-labeled Rrp36, in vitro translated (natural protein, S. cerevisiae, UniProt Q12481 1-300, looked up)
chain: MSYYFKNLKPDLNSDVEEDDGNLLESIMANKSKREIDEQESSDDELKTLSFGSLKKAETVIDEEDFKDTKPVHKKPITTTYREESFDEDEDSEDQSDEDAGFFEEDSEDETHHGQKVPKKKSKHAPVEQSSKKRVPRVRNIPGLEIPRNKRSNLYQDIRFDKSTGKALDSSIIRKRYQFLDEYREKEIDELQKLLQERKFLSKIDQGEREEMEQRLKSMKSRLQSMKNKDLEREILKEYENDMNKNNNTRYHLKKSEKRKVVQKWKFDHMKAKQREKVMERKRKKRLGKEFKQFEFHNRR
modifications: [35S]-methionine-labeled
